Reference: paper PMC12285222

Target: trypsin-processed Vip3Cb1 toxin (Paenibacillus sp. strain DSC004343)
Assay: cryo-EM structure

trypsin-processed Vip3Cb1 toxin (complex)
stoichiometry N: 4
